First the molecules themselves.
B1: T026301121 (VHH, name in Kabat numbering)
VHH: EVQLVESGGGVVQPGGSLRLSCAASTFTFSEYDMYWVRQAPGKGLEWVSAISQGGGSTDYADSVKGRFTISRDNSKNTLYLQMNSLRPEDTALYYCAADTLYTSLTWYSYWGQGTLVTVSS
notes: tagless
B2: T026301084 (VHH, name in Kabat numbering)
VHH: EVQLVESGGGVVQPGGSLRLSCAASGFTFSSYAMYWVRQAPGKGLEWVSAISSGGGSTDYADSVKGRFTISRDNSKNTLYLQMNSLRPEDTALYYCAADTLYTDLTSYSYWGQGTLVTVSS
notes: tagless
B3: T026301109 (VHH, name in Kabat numbering)
VHH: EVQLVESGGGVVQPGGSLRLSCAASTFTFSSYDMYWVRQAPGKGLEWVSAISQGGGSTDYADSVKGRFTISRDNSKNTLYLQMNSLRPEDTALYYCAADTLYTSLTWYSYWGQGTLVTVSS
notes: tagless
B4: T026301083 (VHH, name in Kabat numbering)
VHH: EVQLVESGGGVVQPGGSLRLSCAASGFTFSEYAMYWVRQAPGKGLEWVSAISQGGGSTDYADSVKGRFTISRDNSKNTLYLQMNSLRPEDTALYYCAADTLYTDLTSYSYWGQGTLVTVSS
notes: tagless
B5: T026301085 (VHH, name in Kabat numbering)
VHH: EVQLVESGGGVVQPGGSLRLSCAASGFTFSSYAMYWVRQAPGKGLEWVSAISQGGGSTDYADSVKGRFTISRDNSKNTLYLQMNSLRPEDTALYYCAADTLYTDLTWYSYWGQGTLVTVSS
notes: tagless
B6: T026301113 (VHH, name in Kabat numbering)
VHH: EVQLVESGGGVVQPGGSLRLSCAASGFTFSEYAMYWVRQAPGKGLEWVSAISQGGGSTDYADSVKGRFTISRDNSKNTLYLQMNSLRPEDTALYYCAADTLYTSLTKYSYWGQGTLVTVSS
notes: tagless
B7: T026301125 (VHH, name in Kabat numbering)
VHH: EVQLVESGGGVVQPGGSLRLSCAASGFTFSEYAMYWVRQAPGKGLEWVSAISSGGGSTDYADSVKGRFTISRDNSKNTLYLQMNSLRPEDTALYYCAADTLYTSLTKYSYWGQGTLVTVSS
notes: tagless
B8: T026301088 (VHH, name in Kabat numbering)
VHH: EVQLVESGGGVVQPGGSLRLSCAASGFTFSSYDMYWVRQAPGKGLEWVSAISSGGGSTDYADSVKGRFTISRDNSKNTLYLQMNSLRPEDTALYYCAADTLYTSLTKYSYWGQGTLVTVSS
notes: tagless
B9: T026301090 (VHH, name in Kabat numbering)
VHH: EVQLVESGGGVVQPGGSLRLSCAASTFTFSSYAMYWVRQAPGKGLEWVSAISQGGGSTDYADSVKGRFTISRDNSKNTLYLQMNSLRPEDTALYYCAADTLYTSLTKYSYWGQGTLVTVSS
notes: tagless
B10: T026301097 (VHH, name in Kabat numbering)
VHH: EVQLVESGGGVVQPGGSLRLSCAASTFTFSEYAMYWVRQAPGKGLEWVSAISQGGGSTDYADSVKGRFTISRDNSKNTLYLQMNSLRPEDTALYYCAADTLYTSLTWYSYWGQGTLVTVSS
notes: tagless
B11: T026301127 (VHH, name in Kabat numbering)
VHH: EVQLVESGGGVVQPGGSLRLSCAASTFTFSEYDMYWVRQAPGKGLEWVSAISSGGGSTDYADSVKGRFTISRDNSKNTLYLQMNSLRPEDTALYYCAADTLYTSLTSYSYWGQGTLVTVSS
notes: tagless
B12: T026301128 (VHH, name in Kabat numbering)
VHH: EVQLVESGGGVVQPGGSLRLSCAASGFTFSSYAMYWVRQAPGKGLEWVSAISQGGGSTDYADSVKGRFTISRDNSKNTLYLQMNSLRPEDTALYYCAADTLYTDLTKYSYWGQGTLVTVSS
notes: tagless
B13: T026301107 (VHH, name in Kabat numbering)
VHH: EVQLVESGGGVVQPGGSLRLSCAASTFTFSSYDMYWVRQAPGKGLEWVSAISQGGGSTDYADSVKGRFTISRDNSKNTLYLQMNSLRPEDTALYYCAADTLYTSLTSYSYWGQGTLVTVSS
notes: tagless
B14: T026301086 (VHH, name in Kabat numbering)
VHH: EVQLVESGGGVVQPGGSLRLSCAASGFTFSEYDMYWVRQAPGKGLEWVSAISSGGGSTDYADSVKGRFTISRDNSKNTLYLQMNSLRPEDTALYYCAADTLYTDLTWYSYWGQGTLVTVSS
notes: tagless
B15: T026301110 (VHH, name in Kabat numbering)
VHH: EVQLVESGGGVVQPGGSLRLSCAASGFTFSEYAMYWVRQAPGKGLEWVSAISQGGGSTDYADSVKGRFTISRDNSKNTLYLQMNSLRPEDTALYYCAADTLYTDLTWYSYWGQGTLVTVSS
notes: tagless
B16: T026301123 (VHH, name in Kabat numbering)
VHH: EVQLVESGGGVVQPGGSLRLSCAASTFTFSSYDMYWVRQAPGKGLEWVSAISSGGGSTDYADSVKGRFTISRDNSKNTLYLQMNSLRPEDTALYYCAADTLYTSLTWYSYWGQGTLVTVSS
notes: tagless
B17: T026301089 (VHH, name in Kabat numbering)
VHH: EVQLVESGGGVVQPGGSLRLSCAASGFTFSSYAMYWVRQAPGKGLEWVSAISSGGGSTDYADSVKGRFTISRDNSKNTLYLQMNSLRPEDTALYYCAADTLYTDLTKYSYWGQGTLVTVSS
notes: tagless
B18: T026301094 (VHH, name in Kabat numbering)
VHH: EVQLVESGGGVVQPGGSLRLSCAASTFTFSEYDMYWVRQAPGKGLEWVSAISQGGGSTDYADSVKGRFTISRDNSKNTLYLQMNSLRPEDTALYYCAADTLYTSLTSYSYWGQGTLVTVSS
notes: tagless
B19: T026301124 (VHH, name in Kabat numbering)
VHH: EVQLVESGGGVVQPGGSLRLSCAASTFTFSEYAMYWVRQAPGKGLEWVSAISQGGGSTDYADSVKGRFTISRDNSKNTLYLQMNSLRPEDTALYYCAADTLYTSLTKYSYWGQGTLVTVSS
notes: tagless
B20: T026301082 (VHH, name in Kabat numbering)
VHH: EVQLVESGGGVVQPGGSLRLSCAASTFTFSSYAMYWVRQAPGKGLEWVSAISSGGGSTDYADSVKGRFTISRDNSKNTLYLQMNSLRPEDTALYYCAADTLYTDLTSYSYWGQGTLVTVSS
notes: tagless
B21: T026301126 (VHH, name in Kabat numbering)
VHH: EVQLVESGGGVVQPGGSLRLSCAASTFTFSSYAMYWVRQAPGKGLEWVSAISSGGGSTDYADSVKGRFTISRDNSKNTLYLQMNSLRPEDTALYYCAADTLYTSLTKYSYWGQGTLVTVSS
notes: tagless
B22: T026301112 (VHH, name in Kabat numbering)
VHH: EVQLVESGGGVVQPGGSLRLSCAASGFTFSEYDMYWVRQAPGKGLEWVSAISQGGGSTDYADSVKGRFTISRDNSKNTLYLQMNSLRPEDTALYYCAADTLYTSLTKYSYWGQGTLVTVSS
notes: tagless
B23: T026301096 (VHH, name in Kabat numbering)
VHH: EVQLVESGGGVVQPGGSLRLSCAASGFTFSSYAMYWVRQAPGKGLEWVSAISQGGGSTDYADSVKGRFTISRDNSKNTLYLQMNSLRPEDTALYYCAADTLYTDLTSYSYWGQGTLVTVSS
notes: tagless
B24: T026301049 (VHH, name in Kabat numbering)
VHH: EVQLVESGGGVVQPGGSLRLSCAASTFTFSEYDMYWVRQAPGKGLEWVSAISSGGGSTDYADSVKGRFTISRDNSKNTLYLQMNSLRPEDTALYYCAADTLYTDLTWYSYWGQGTLVTVSS
notes: tagless
B25: T026301053 (VHH, name in Kabat numbering)
VHH: EVQLVESGGGVVQPGGSLRLSCAASTFTFSEYDMYWVRQAPGKGLEWVSAISSGGGSTDYADSVKGRFTISRDNSKNTLYLQMNSLRPEDTALYYCAADTLYTSLTKYSYWGQGTLVTVSS
notes: tagless
B26: T026301055 (VHH, name in Kabat numbering)
VHH: EVQLVESGGGVVQPGGSLRLSCAASTFTFSSYDMYWVRQAPGKGLEWVSAISSGGGSTDYADSVKGRFTISRDNSKNTLYLQMNSLRPEDTALYYCAADTLYTSLTKYSYWGQGTLVTVSS
notes: tagless
B27: T026301058 (VHH, name in Kabat numbering)
VHH: EVQLVESGGGVVQPGGSLRLSCAASTFTFSEYAMYWVRQAPGKGLEWVSAISQGGGSTDYADSVKGRFTISRDNSKNTLYLQMNSLRPEDTALYYCAADTLYTDLTKYSYWGQGTLVTVSS
notes: tagless
B28: T026301062 (VHH, name in Kabat numbering)
VHH: EVQLVESGGGVVQPGGSLRLSCAASTFTFSSYDMYWVRQAPGKGLEWVSAISSGGGSTDYADSVKGRFTISRDNSKNTLYLQMNSLRPEDTALYYCAADTLYTDLTWYSYWGQGTLVTVSS
notes: tagless
B29: T026301066 (VHH, name in Kabat numbering)
VHH: EVQLVESGGGVVQPGGSLRLSCAASGFTFSEYAMYWVRQAPGKGLEWVSAISSGGGSTDYADSVKGRFTISRDNSKNTLYLQMNSLRPEDTALYYCAADTLYTDLTKYSYWGQGTLVTVSS
notes: tagless
B30: T026301065 (VHH, name in Kabat numbering)
VHH: EVQLVESGGGVVQPGGSLRLSCAASTFTFSEYDMYWVRQAPGKGLEWVSAISQGGGSTDYADSVKGRFTISRDNSKNTLYLQMNSLRPEDTALYYCAADTLYTDLTWYSYWGQGTLVTVSS
notes: tagless
B31: T026301068 (VHH, name in Kabat numbering)
VHH: EVQLVESGGGVVQPGGSLRLSCAASGFTFSSYDMYWVRQAPGKGLEWVSAISQGGGSTDYADSVKGRFTISRDNSKNTLYLQMNSLRPEDTALYYCAADTLYTDLTKYSYWGQGTLVTVSS
notes: tagless
B32: T026301056 (VHH, name in Kabat numbering)
VHH: EVQLVESGGGVVQPGGSLRLSCAASTFTFSEYDMYWVRQAPGKGLEWVSAISQGGGSTDYADSVKGRFTISRDNSKNTLYLQMNSLRPEDTALYYCAADTLYTDLTKYSYWGQGTLVTVSS
notes: tagless

For the first assay, the target named is T1, human FcRn/b2M (human, UniProt P61769 21-119, biotinylated).
T1 construct: bought recombinant biotinylated protein (ACRO FCM-H82W4 or Immunitrack ITF01); also called hFcRn; hFcRn/hb2M
T1 sequence (chain, as listed by the source limits assumed, chain 1 of 2): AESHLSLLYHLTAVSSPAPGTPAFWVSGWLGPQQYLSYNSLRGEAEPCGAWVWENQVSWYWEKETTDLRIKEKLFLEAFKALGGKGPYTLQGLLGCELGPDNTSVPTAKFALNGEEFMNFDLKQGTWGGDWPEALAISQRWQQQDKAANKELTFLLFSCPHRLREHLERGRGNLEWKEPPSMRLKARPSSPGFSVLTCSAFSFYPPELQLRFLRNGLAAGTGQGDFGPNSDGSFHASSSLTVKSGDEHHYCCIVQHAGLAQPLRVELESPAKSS
T1 sequence (P61769 21-119 limits assumed, chain 2 of 2): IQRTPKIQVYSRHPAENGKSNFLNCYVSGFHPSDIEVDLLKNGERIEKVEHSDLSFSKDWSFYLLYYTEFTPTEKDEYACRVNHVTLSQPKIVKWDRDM
Nature of the assay: SPR pH 6.0.
One may read the koff as the first-order rate constant of dissociation. B1: the koff worked out at 0.0018 s⁻¹.
B2 displayed a koff of 0.021 s⁻¹.
B3 gave a koff of 0.0013 s⁻¹.
In the case of B4, the koff was 0.067 s⁻¹.
With B5, the koff stood at 0.0066 s⁻¹.
Regarding B6, the dissociation rate constant (koff) was found to be 0.021 s⁻¹.
For the molecule B7, the koff turned out to be 0.0082 s⁻¹.
Turning to B8, the koff stood at 0.0093 s⁻¹.
Same read-out and setting: in the case of B9 it was 0.033 s⁻¹; in that of B10, 0.0067 s⁻¹.
Consider B11, for which the dissociation rate constant (koff) was 0.0095 s⁻¹.
As for B12, the koff was found to be 0.032 s⁻¹.
Take B13: the koff stood at 0.0045 s⁻¹.
Still for that read-out and setting: under B14 stands 0.013 s⁻¹; under B15, 0.014 s⁻¹.
In turn, B16 showed a koff of 0.0054 s⁻¹.
As for B17, the koff amounted to 0.028 s⁻¹.
Molecule B18 displayed a koff of 0.01 s⁻¹.
The molecule B19 displayed a koff of 0.059 s⁻¹. Against the preceding molecule, the koff is about 5.9-fold higher.
As for B20, the koff worked out at 0.054 s⁻¹.
On to B21, for which the koff came out at 0.01 s⁻¹.
B22 registered a koff of 0.0072 s⁻¹.
In the case of B23, the koff was 0.034 s⁻¹.

The next assay has as its target T1, human FcRn/b2M. Nature of the assay: SPR off-rate pH 6.0.
As for B24, the binding result is reported as “no binding”.
Same read-out and setting: under B25 stands “no binding”; under B26, “no binding”.
As for B27, the binding result was “no binding”.
On the same count and under the same terms, in the case of B28 it was “no binding”; in that of B29, “no binding”; in that of B30, “no binding”.
Turning to B31, the binding result was “no binding”.
Turning to B32, the binding result is on record as “no binding”.

Values taken from US20240132624A1 (Ablynx, published 2024).
